Measured values published in the supplement of paper PMC7125110.
± gives the standard error. For part of these data: This sample holds only a part of the variants without activity.

B1: glmS ribozyme (parent)
chain: AUAAAAGCGCCAGAACUACAGAAAUGUAGUUGACGAGGAGGAGGUUUAUCGAAUUUUCGGCGGAUGCCUCCAAA

Experiments:
Conditions in all cases: with glucosamine-6-phosphate
glucosamine-6-phosphate [1] = variants of: B1; assay: KM; higher = weaker cofactor use; RNA array
In short: (§1)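 Tiles of sequenced MiSeq chips were imaged over ~14 h at 37 °C. On them, barcoded ribozyme variants had been transcribed in situ by E. coli RNA polymerase and were tracked via a hybridised Cy3 probe while glucosamine-6-phosphate (40 μM to 10 mM) in HEPES/KCl/Mg(OAc)2 buffer flowed in. Per-tile medians, normalised to baseline and to non-cleaving reference variants, were fit to one- or two-exponential decays for kobs, and weighted Michaelis–Menten fits gave kcat and KM.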

glucosamine-6-phosphate [2] = variants of: B1; assay: self-cleavage kobs at 40 uM GlcN6P; higher = faster cleavage; RNA array
In short: as §1

glucosamine-6-phosphate [3] = variants of: B1; assay: self-cleavage kobs at 160 uM GlcN6P; higher = faster cleavage; RNA array
In short: as §1

glucosamine-6-phosphate [4] = variants of: B1; assay: self-cleavage kobs at 640 uM GlcN6P; higher = faster cleavage; RNA array
In short: as §1

glucosamine-6-phosphate [5] = variants of: B1; assay: self-cleavage kobs at 2500 uM GlcN6P; higher = faster cleavage; RNA array
In short: as §1

glucosamine-6-phosphate [6] = variants of: B1; assay: self-cleavage kobs at 10000 uM GlcN6P; higher = faster cleavage; RNA array
In short: as §1

glucosamine-6-phosphate [7] = variants of: B1; assay: kcat; higher = faster cleavage; RNA array
In short: as §1

Variant	KM (glucosamine-6-phosphate [1]) [µM]	self-cleavage kobs at 40 uM GlcN6P (glucosamine-6-phosphate [2]) [s⁻¹]	self-cleavage kobs at 160 uM GlcN6P (glucosamine-6-phosphate [3]) [s⁻¹]	self-cleavage kobs at 640 uM GlcN6P (glucosamine-6-phosphate [4]) [s⁻¹]	self-cleavage kobs at 2500 uM GlcN6P (glucosamine-6-phosphate [5]) [s⁻¹]	self-cleavage kobs at 10000 uM GlcN6P (glucosamine-6-phosphate [6]) [s⁻¹]	kcat (glucosamine-6-phosphate [7]) [s⁻¹]
C16U G66A	1520 ± 640	0.000448 ± 9.7e-05	0.00133 ± 0.00023	0.00417 ± 0.00068	0.00873 ± 0.0019	0.0329 ± 0.014	–
U31A G66U	1380 ± 190	2.99e-05 ± 1.3e-05	7.61e-05 ± 1.5e-05	0.000206 ± 3.9e-05	0.000466 ± 7.9e-05	0.000631 ± 7.6e-05	0.000713 ± 5.1e-05
G29A U54A	3150 ± 1100	0.000135 ± 2.1e-05	–	0.0011 ± 0.00037	0.00422 ± 0.00084	0.00745 ± 0.0014	0.00945 ± 0.0024
G32U C58G A64G C67A	–	7.51e-05 ± 2.6e-05	–	–	–	0.000152 ± 2.4e-05	–
A12C U30G G32U A33C C58U	–	< 1e-05	–	–	–	< 1e-05	–
A15G U55C	1870 ± 410	0.000564 ± 7.9e-05	0.00212 ± 0.00033	0.0055 ± 0.0011	0.0125 ± 0.005	0.0242 ± 0.0051	0.0256 ± 0.0046
A53C C68U	858 ± 310	–	–	3.67e-05 ± 7.7e-06	8.77e-05 ± 1e-05	8.67e-05 ± 5.3e-06	9.65e-05 ± 7.1e-06
A53U G66U	2320 ± 590	–	6.64e-05 ± 1.7e-05	0.000307 ± 7.4e-05	0.000716 ± 0.00012	0.000904 ± 0.00012	0.00118 ± 0.00016
U30A U49C U55A	–	< 1e-05	–	–	–	–	–
A14U G62A	–	< 1e-05	–	< 1e-05	< 1e-05	< 1e-05	–
A48U G62C C70U	–	< 1e-05	–	< 1e-05	< 1e-05	< 1e-05	–
C11U U54A	1150 ± 470	8.46e-05 ± 1.3e-05	0.000164 ± 3.1e-05	0.000876 ± 0.00016	0.00164 ± 0.00021	0.00149 ± 0.00021	0.00189 ± 0.00049
A33G G59U C68A C71A	–	–	–	–	–	–	2.2e-05 ± 6.5e-06
C11U C50G C68G	–	6.75e-05 ± 1.4e-05	–	0.000123 ± 1.8e-05	0.000141 ± 2.8e-05	–	–
U57A G60C	–	–	–	–	–	–	2.43e-05 ± 9.7e-06
G62C U69C	–	< 1e-05	–	< 1e-05	–	–	< 1e-05
A64C U65A	–	< 1e-05	< 1e-05	–	–	–	2.96e-05 ± 5.1e-06
C10A A12U C71U	21.5 ± 9.2	–	–	–	–	–	1.55e-05 ± 6.5e-07
G13A A42G A48U	–	< 1e-05	–	–	–	< 1e-05	–

Variant	KM (glucosamine-6-phosphate [1]) [µM]	self-cleavage kobs at 40 uM GlcN6P (glucosamine-6-phosphate [2]) [s⁻¹]	self-cleavage kobs at 160 uM GlcN6P (glucosamine-6-phosphate [3]) [s⁻¹]	self-cleavage kobs at 640 uM GlcN6P (glucosamine-6-phosphate [4]) [s⁻¹]	self-cleavage kobs at 2500 uM GlcN6P (glucosamine-6-phosphate [5]) [s⁻¹]	self-cleavage kobs at 10000 uM GlcN6P (glucosamine-6-phosphate [6]) [s⁻¹]	kcat (glucosamine-6-phosphate [7]) [s⁻¹]
A6G C10A	–	< 1e-05	–	–	–	< 1e-05	< 1e-05
U46G G66A	2580 ± 720	0.000106 ± 1.6e-05	–	0.00155 ± 0.00019	0.00502 ± 0.0011	0.00541 ± 0.001	0.00746 ± 0.0016
A12G C58A	1510 ± 610	–	4.69e-05 ± 1.3e-05	0.000154 ± 1.7e-05	0.000245 ± 3.3e-05	0.000523 ± 7.4e-05	0.000476 ± 0.0001
G44A C70A	–	< 1e-05	< 1e-05	–	< 1e-05	< 1e-05	–
A12U G13U G43A	–	< 1e-05	–	–	–	< 1e-05	–
C11A C34U G63C	–	< 1e-05	–	< 1e-05	< 1e-05	–	–
A42U C68U	1360 ± 230	–	–	0.000108 ± 2.4e-05	0.000254 ± 5.6e-05	0.000302 ± 3e-05	0.000347 ± 1.8e-05
G40U A48G	–	< 1e-05	–	–	–	3.18e-05 ± 8.1e-06	8.97e-05 ± 4.3e-05
G13C A15U	2810 ± 940	–	–	3.78e-05 ± 1e-05	5.63e-05 ± 7.5e-06	0.000103 ± 6.3e-06	0.000131 ± 1.4e-05
G32C U55G	–	–	–	–	2.64e-05 ± 8.4e-06	6.68e-05 ± 1.2e-05	0.000137 ± 1.4e-05
A14G G66C	1410 ± 110	4.79e-05 ± 9.1e-06	–	0.000484 ± 0.00012	0.00114 ± 0.00025	0.00147 ± 0.00015	0.00168 ± 6.5e-05
A36U A53U	148 ± 37	–	–	–	–	–	–
G37U U54C	2230 ± 960	–	–	–	–	–	–
A52G C70U	3870 ± 600	2.96e-05 ± 5.4e-06	0.000108 ± 3.7e-05	0.00037 ± 6.1e-05	0.000878 ± 0.00015	0.00194 ± 0.00018	0.00261 ± 0.00024
U57C A64G	3140 ± 87	–	–	3.93e-05 ± 7.8e-06	0.000106 ± 1.3e-05	0.000179 ± 1.7e-05	0.000236 ± 3.1e-06
G35C G66A	–	< 1e-05	–	–	< 1e-05	< 1e-05	–
A52U C70U	3490 ± 1100	–	–	0.000122 ± 2e-05	0.000228 ± 3.4e-05	0.000483 ± 4.7e-05	0.00063 ± 0.0001
A33C C70G	–	–	< 1e-05	–	< 1e-05	< 1e-05	< 1e-05
